Source: paper PMC9352680, “A comprehensive thermodynamic model for RNA binding by the Saccharomyces cerevisiae Pumilio protein PUF4”

T1: PUF4 RNA-binding domain (Saccharomyces cerevisiae, UniProt P25339 537-888)
T1 sequence: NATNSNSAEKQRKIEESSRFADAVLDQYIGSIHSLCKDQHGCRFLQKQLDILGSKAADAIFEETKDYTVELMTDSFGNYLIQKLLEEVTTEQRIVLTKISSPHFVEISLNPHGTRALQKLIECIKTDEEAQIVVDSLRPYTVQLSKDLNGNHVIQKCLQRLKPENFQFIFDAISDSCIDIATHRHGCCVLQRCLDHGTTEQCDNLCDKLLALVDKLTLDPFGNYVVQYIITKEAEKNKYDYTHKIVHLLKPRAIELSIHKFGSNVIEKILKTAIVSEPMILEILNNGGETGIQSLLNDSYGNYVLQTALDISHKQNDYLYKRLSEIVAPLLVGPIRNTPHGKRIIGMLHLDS

B1: Id_ii_S1_P4E.3_K4.2_C4.2_[T-1C]_H4.2_A4.1_F4.1_T4.2_[G10T]_[T11G] (ssRNA)
RNA: UCUCUUCCUAUAUAUUAUGUCUCUU
B2: Id_ii_S1_P4E.3_K4.2_C4.2_[C-2A]_[T-1A]_H4.2_A4.1_F4.1_T4.2_[T11C] (ssRNA)
RNA: UCUCUUAAUAUAUAUUAGCUCUCUU
B3: Id_ii_S1_P4E.3_K4.2_C4.2_[C-2A]_[T-1A]_H4.2_A4.1_F4.1_T4.2_[G10A]_[T11C] (ssRNA)
RNA: UCUCUUAAUAUAUAUUAACUCUCUU
B4: Ib_S1_P4E.1_K4.1_C4.1_H4.1_[A4G]_A4.1_[T7G]_F4.1_T4.1 (ssRNA)
RNA: UCUCUUUGUGUAGUAUCUCUU
B5: Id_ii_S1_P4E.3_K4.2_C4.2_[C-2A]_H4.2_A4.1_F4.1_T4.2_[T11C] (ssRNA)
RNA: UCUCUUAUUAUAUAUUAGCUCUCUU
B6: Id_ii_S1_P4E.3_K4.2_C4.2_[T-1G]_H4.2_A4.1_F4.1_T4.2_[T11C] (ssRNA)
RNA: UCUCUUCGUAUAUAUUAGCUCUCUU
B7: Ib_S1_P4E.1_K4.1_C4.1_H4.1_[A4G]_A4.1_[T7C]_F4.1_T4.1 (ssRNA)
RNA: UCUCUUUGUGUACUAUCUCUU
B8: Id_ii_S1_P4E.3_K4.2_C4.2_[C-2A]_[T-1C]_H4.2_A4.1_F4.1_T4.2_[G10A]_[T11A] (ssRNA)
RNA: UCUCUUACUAUAUAUUAAAUCUCUU
B9: Id_ii_S1_P4E.3_K4.2_C4.2_[T-1C]_H4.2_A4.1_F4.1_T4.2_[G10A]_[T11A] (ssRNA)
RNA: UCUCUUCCUAUAUAUUAAAUCUCUU
B10: Id_ii_S1_P4E.3_K4.2_C4.2_[C-2A]_H4.2_A4.1_F4.1_T4.2_[G10C]_[T11A] (ssRNA)
RNA: UCUCUUAUUAUAUAUUACAUCUCUU
B11: Id_ii_S1_P4E.3_K4.2_C4.2_[C-2A]_H4.2_A4.1_F4.1_T4.2_[G10C]_[T11C] (ssRNA)
RNA: UCUCUUAUUAUAUAUUACCUCUCUU
B12: Id_ii_S1_P4E.3_K4.2_C4.2_[C-2A]_[T-1A]_H4.2_A4.1_F4.1_T4.2_[G10T]_[T11C] (ssRNA)
RNA: UCUCUUAAUAUAUAUUAUCUCUCUU
B13: Ib_S1_P4E.1_K4.1_C4.1_H4.1_[A4T]_A4.1_[A6T]_F4.1_T4.1 (ssRNA)
RNA: UCUCUUUGUUUUUUAUCUCUU
B14: Id_ii_S1_P4E.3_K4.2_C4.2_H4.2_A4.1_F4.1_T4.2_[G10C]_[T11A] (ssRNA)
RNA: UCUCUUCUUAUAUAUUACAUCUCUU
B15: Id_ii_S1_P4E.3_K4.2_C4.2_[T-1C]_H4.2_A4.1_F4.1_T4.2_[G10C] (ssRNA)
RNA: UCUCUUCCUAUAUAUUACUUCUCUU
B16: Id_ii_S1_P4E.3_K4.2_C4.2_[T-1C]_H4.2_A4.1_F4.1_T4.2_[G10T] (ssRNA)
RNA: UCUCUUCCUAUAUAUUAUUUCUCUU
B17: Id_ii_S1_P4E.3_K4.2_C4.2_[T-1A]_H4.2_A4.1_F4.1_T4.2_[G10C]_[T11A] (ssRNA)
RNA: UCUCUUCAUAUAUAUUACAUCUCUU
B18: Id_ii_S1_P4E.3_K4.2_C4.2_[T-1A]_H4.2_A4.1_F4.1_T4.2_[G10T]_[T11C] (ssRNA)
RNA: UCUCUUCAUAUAUAUUAUCUCUCUU
B19: Ib_S1_P4E.1_K4.1_C4.1_H4.1_[A4T]_A4.1_[A6C]_F4.1_T4.1 (ssRNA)
RNA: UCUCUUUGUUUCUUAUCUCUU
B20: Id_ii_S1_P4E.3_K4.2_C4.2_[C-2A]_[T-1A]_H4.2_A4.1_F4.1_T4.2_[G10C]_[T11A] (ssRNA)
RNA: UCUCUUAAUAUAUAUUACAUCUCUU
B21: Id_ii_S1_P4E.3_K4.2_C4.2_[T-1A]_H4.2_A4.1_F4.1_T4.2 (ssRNA)
RNA: UCUCUUCAUAUAUAUUAGUUCUCUU
B22: Id_ii_S1_P4E.3_K4.2_C4.2_[T-1G]_H4.2_A4.1_F4.1_T4.2 (ssRNA)
RNA: UCUCUUCGUAUAUAUUAGUUCUCUU
B23: Id_ii_S1_P4E.3_K4.2_C4.2_[T-1A]_H4.2_A4.1_F4.1_T4.2_[G10C]_[T11G] (ssRNA)
RNA: UCUCUUCAUAUAUAUUACGUCUCUU
B24: Id_ii_S1_P4E.3_K4.2_C4.2_H4.2_A4.1_F4.1_T4.2_[G10C]_[T11G] (ssRNA)
RNA: UCUCUUCUUAUAUAUUACGUCUCUU
B25: Id_ii_S1_P4E.3_K4.2_C4.2_[C-2A]_[T-1A]_H4.2_A4.1_F4.1_T4.2 (ssRNA)
RNA: UCUCUUAAUAUAUAUUAGUUCUCUU
B26: Id_ii_S1_P4E.3_K4.2_C4.2_[C-2A]_H4.2_A4.1_F4.1_T4.2_[G10A]_[T11C] (ssRNA)
RNA: UCUCUUAUUAUAUAUUAACUCUCUU
B27: Ib_S1_P4E.1_K4.1_C4.1_H4.1_[A4C]_A4.1_[A6C]_F4.1_T4.1 (ssRNA)
RNA: UCUCUUUGUCUCUUAUCUCUU
B28: Id_ii_S1_P4E.3_K4.2_C4.2_[T-1G]_H4.2_A4.1_F4.1_T4.2_[G10A]_[T11C] (ssRNA)
RNA: UCUCUUCGUAUAUAUUAACUCUCUU
B29: Id_ii_S1_P4E.3_K4.2_C4.2_[T-1G]_H4.2_A4.1_F4.1_T4.2_[G10T] (ssRNA)
RNA: UCUCUUCGUAUAUAUUAUUUCUCUU
B30: Id_ii_S1_P4E.3_K4.2_C4.2_[T-1C]_H4.2_A4.1_F4.1_T4.2_[G10T]_[T11C] (ssRNA)
RNA: UCUCUUCCUAUAUAUUAUCUCUCUU
B31: Id_ii_S1_P4E.3_K4.2_C4.2_[C-2A]_H4.2_A4.1_F4.1_T4.2_[G10T]_[T11G] (ssRNA)
RNA: UCUCUUAUUAUAUAUUAUGUCUCUU

Molecular target: T1, PUF4 RNA-binding domain
Experiment: Mg; RNA-MaP; 20 mM Na-HEPES pH 7.4, 30 mM KOAc, 0.75 mM MgCl2, 0.1% Tween-20, 5% glycerol, 0.1 mg/mL BSA, 2 mM DTT; 25 C; 0.0125-409.6 nM protein
Settings: tags: N-His6-TEV cleaved; C-SNAP kept, Cy3B-labelled; label: tethered on chip by stalled RNA polymerase

| Binder | Kd [nM] |
| --- | --- |
| B1 | 21.1 |
| B2 | 38.8 |
| B3 | 442 |
| B4 | 18.3 |
| B5 | 15.7 |
| B6 | 9.29 |
| B7 | 6.14 |
| B8 | 87.3 |
| B9 | 30.4 |
| B10 | 42.9 |
| B11 | 39 |
| B12 | 79.9 |
| B13 | 100 |
| B14 | 13.5 |
| B15 | 20.1 |
| B16 | 26.9 |

| Binder | Kd [nM] |
| --- | --- |
| B17 | 27.8 |
| B18 | 25 |
| B19 | 370 |
| B20 | 48.9 |
| B21 | 8.18 |
| B22 | 8.31 |
| B23 | 34.8 |
| B24 | 16.6 |
| B25 | 26.7 |
| B26 | 44.1 |
| B27 | 813 |
| B28 | 29.9 |
| B29 | 21.9 |
| B30 | 18.5 |
| B31 | 18.8 |
